The target in data set [1] is T1, Msl5-(KH-QUA2) (Saccharomyces cerevisiae, UniProt Q12186 144-271).
T1 sequence: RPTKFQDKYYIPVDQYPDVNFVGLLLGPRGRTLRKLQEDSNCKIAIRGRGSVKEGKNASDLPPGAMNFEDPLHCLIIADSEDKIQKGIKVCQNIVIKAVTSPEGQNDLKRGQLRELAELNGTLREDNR
Kind of data set: EMSA.

Data set [2] deals with T1, Msl5-(KH-QUA2). Kind of data set: EMSA. This is another data set of the same source.

As for UAUACGAACAA (ssRNA) [11-mer RNA U4G], the binding result with Msl5-(KH-QUA2) [1] is “no binding”.

Turning to UAUACCAACAA (ssRNA) [11-mer RNA U4C], the binding result in the data set with Msl5-(KH-QUA2) [1] is recorded as “no binding”.

As to UAUACUAGCAA (ssRNA) [11-mer RNA A6G], the binding result with Msl5-(KH-QUA2) [1] is listed as “no binding”.

UAUACUAACAA (ssRNA) [11-mer branchpoint RNA (WT)]: in the data set with Msl5-(KH-QUA2) [2], the “apparent K (half saturation)” value was found to be 140 nM.

Turning to UAUACUAUCAA (ssRNA) [11-mer RNA A6U], the binding result in the data set with Msl5-(KH-QUA2) [1] is reported as “no binding”.

The record behind these values is PMC4338336.
